From US20250262210A1 (TRUSTEES OF COLUMBIA UNIVERSITY IN THE CITY OF NEW YORK, published 2025) come the findings set out here.

For this assay, the target named is T1, RALGAPB (human, UniProt Q86X10 1-1494, limits assumed).
T1 sequence (looked up): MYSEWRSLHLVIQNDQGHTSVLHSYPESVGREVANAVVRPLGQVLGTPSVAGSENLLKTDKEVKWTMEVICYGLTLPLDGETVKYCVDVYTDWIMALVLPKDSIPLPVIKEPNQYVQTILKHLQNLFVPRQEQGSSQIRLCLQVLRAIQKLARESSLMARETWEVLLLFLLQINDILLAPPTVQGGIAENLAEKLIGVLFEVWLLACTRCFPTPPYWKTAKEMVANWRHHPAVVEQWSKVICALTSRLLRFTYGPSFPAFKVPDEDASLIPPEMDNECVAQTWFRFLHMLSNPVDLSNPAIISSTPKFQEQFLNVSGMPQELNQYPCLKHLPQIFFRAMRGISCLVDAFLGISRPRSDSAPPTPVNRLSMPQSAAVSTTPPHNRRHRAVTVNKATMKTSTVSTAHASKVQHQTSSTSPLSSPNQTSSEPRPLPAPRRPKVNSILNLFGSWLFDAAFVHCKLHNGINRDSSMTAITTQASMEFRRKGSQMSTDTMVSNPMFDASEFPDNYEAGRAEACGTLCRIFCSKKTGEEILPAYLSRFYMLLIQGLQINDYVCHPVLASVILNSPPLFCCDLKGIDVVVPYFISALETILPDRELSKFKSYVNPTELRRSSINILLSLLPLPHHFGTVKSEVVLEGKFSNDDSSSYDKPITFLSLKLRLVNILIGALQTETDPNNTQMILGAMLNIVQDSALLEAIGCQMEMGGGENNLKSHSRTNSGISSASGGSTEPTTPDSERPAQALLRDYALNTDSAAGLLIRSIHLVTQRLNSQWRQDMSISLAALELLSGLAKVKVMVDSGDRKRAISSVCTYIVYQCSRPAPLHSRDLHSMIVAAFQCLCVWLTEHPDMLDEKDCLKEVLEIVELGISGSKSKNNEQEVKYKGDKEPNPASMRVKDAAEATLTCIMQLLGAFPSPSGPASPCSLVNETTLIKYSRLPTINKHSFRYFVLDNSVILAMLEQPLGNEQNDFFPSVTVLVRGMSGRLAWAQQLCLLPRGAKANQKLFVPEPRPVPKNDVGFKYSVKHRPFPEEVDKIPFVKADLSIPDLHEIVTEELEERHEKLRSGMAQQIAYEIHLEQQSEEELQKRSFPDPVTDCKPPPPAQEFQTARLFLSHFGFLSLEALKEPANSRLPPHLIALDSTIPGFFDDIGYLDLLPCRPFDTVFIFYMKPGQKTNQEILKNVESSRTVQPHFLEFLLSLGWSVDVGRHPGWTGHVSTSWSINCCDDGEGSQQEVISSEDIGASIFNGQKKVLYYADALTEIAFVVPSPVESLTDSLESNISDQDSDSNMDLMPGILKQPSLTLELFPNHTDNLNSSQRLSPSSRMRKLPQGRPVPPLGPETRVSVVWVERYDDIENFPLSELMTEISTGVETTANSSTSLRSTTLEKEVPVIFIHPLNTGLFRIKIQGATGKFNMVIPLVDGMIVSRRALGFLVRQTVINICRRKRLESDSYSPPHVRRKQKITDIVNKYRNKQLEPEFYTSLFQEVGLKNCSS
The assay can be described thus: IP/MS, LZTR1 wild type-FLAG, U87. An outline of the steps: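 Extracted peptides in 3% acetonitrile/0.1% formic acid ran on a 50 cm C18 column into an Orbitrap Fusion, with MaxQuant identification and spectral counting.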

B1: LZTR1-FLAG (other, human, UniProt Q8N653 1-840, looked up)
chain: MAGPGSTGGQIGAAALAGGARSKVAPSVDFDHSCSDSVEYLTLNFGPFETVHRWRRLPPCDEFVGARRSKHTVVAYKDAIYVFGGDNGKTMLNDLLRFDVKDCSWCRAFTTGTPPAPRYHHSAVVYGSSMFVFGGYTGDIYSNSNLKNKNDLFEYKFATGQWTEWKIEGRLPVARSAHGATVYSDKLWIFAGYDGNARLNDMWTIGLQDRELTCWEEVAQSGEIPPSCCNFPVAVCRDKMFVFSGQSGAKITNNLFQFEFKDKTWTRIPTEHLLRGSPPPPQRRYGHTMVAFDRHLYVFGGAADNTLPNELHCYDVDFQTWEVVQPSSDSEVGGAEVPERACASEEVPTLTYEERVGFKKSRDVFGLDFGTTSAKQPTQPASELPSGRLFHAAAVISDAMYIFGGTVDNNIRSGEMYRFQFSCYPKCTLHEDYGRLWESRQFCDVEFVLGEKEECVQGHVAIVTARSRWLRRKITQARERLAQKLEQEAAPVPREAPGVAAGGARPPLLHVAIREAEARPFEVLMQFLYTDKIKYPRKGHVEDVLLIMDVYKLALSFQLCRLEQLCRQYIEASVDLQNVLVVCESAARLQLSQLKEHCLNFVVKESHFNQVIMMKEFERLSSPLIVEIVRRKQQPPPRTPLDQPVDIGTSLIQDMKAYLEGAGAEFCDITLLLDGHPRPAHKAILAARSSYFEAMFRSFMPEDGQVNISIGEMVPSRQAFESMLRYIYYGEVNMPPEDSLYLFAAPYYYGFYNNRLQAYCKQNLEMNVTVQNVLQILEAADKTQALDMKRHCLHIIVHQFTKVSKLPTLRSLSQQLLLDIIDSLASHISDKQCAELGADI
notes: Expressed in HEK 293T, HeLa or U87 cells; used as cell lysate; also called LZTR1 wild type-FLAG; LZTR1 WT; not shown: FLAG tag at the C-terminus
For the molecule B1, the binding result is “binds”.
